Data on 3 molecules can be found in PMC9482650, “Quantitative fragmentomics allow affinity mapping of interactomes” (Nature Communications, 2022).

Holding throughout (test): holdup assay
What all share (design): key: below the threshold = too weak to quantify, mostly under pKd 3.1 to 4

In assay [1] the target is T1, MPDZ_11, O75970.
T1 sequence (O75970 1720-1817, limits assumed, looked up): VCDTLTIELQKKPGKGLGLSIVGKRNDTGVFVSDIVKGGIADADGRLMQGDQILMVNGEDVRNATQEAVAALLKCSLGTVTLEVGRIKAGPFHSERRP

Assay [2] addresses T2, SHANK2, Q9UPX8.
T2 sequence (Q9UPX8 621-730, limits assumed, looked up): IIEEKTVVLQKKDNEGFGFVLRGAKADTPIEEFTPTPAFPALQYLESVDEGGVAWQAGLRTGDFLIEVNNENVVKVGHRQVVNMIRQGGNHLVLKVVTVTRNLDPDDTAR

Assay [3] deals with IL16_2, Q14005.
Sequence of IL16_2, Q14005 (Q14005 350-450): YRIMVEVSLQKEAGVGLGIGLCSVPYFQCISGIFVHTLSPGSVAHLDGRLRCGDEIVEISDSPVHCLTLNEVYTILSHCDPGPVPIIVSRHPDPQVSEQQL
Assay [4] has as its target T3, MPDZ_7, O75970.
T3 sequence (O75970 1146-1253, limits assumed, looked up): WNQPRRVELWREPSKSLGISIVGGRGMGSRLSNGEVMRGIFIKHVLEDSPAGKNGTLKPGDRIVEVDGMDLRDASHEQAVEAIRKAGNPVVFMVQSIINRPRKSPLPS

Assay [5] concerns the target T4, INTU, Q9ULD6.
T4 sequence (Q9ULD6 180-273, limits assumed, looked up): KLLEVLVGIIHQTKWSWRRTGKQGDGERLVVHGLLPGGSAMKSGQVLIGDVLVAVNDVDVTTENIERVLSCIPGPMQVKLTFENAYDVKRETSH

Assay [6] deals with PDZD9, Q8IXQ8.
Sequence of PDZD9, Q8IXQ8 (Q8IXQ8 23-120): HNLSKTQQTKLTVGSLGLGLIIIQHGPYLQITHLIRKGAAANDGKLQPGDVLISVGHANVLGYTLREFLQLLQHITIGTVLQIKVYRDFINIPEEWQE
The target of assay [7] is T5, PTPN13_5, Q12923.
T5 sequence (Q12923 1877-1975, limits assumed, looked up): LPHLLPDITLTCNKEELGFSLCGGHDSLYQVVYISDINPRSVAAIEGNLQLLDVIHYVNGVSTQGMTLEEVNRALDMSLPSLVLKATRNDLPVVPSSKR

Assay [8] concerns the target PARD3B_2, Q8TEW8.
The target in assay [9] is T6, APBA3_2, O96018.
T6 sequence (O96018 480-570, limits assumed, looked up): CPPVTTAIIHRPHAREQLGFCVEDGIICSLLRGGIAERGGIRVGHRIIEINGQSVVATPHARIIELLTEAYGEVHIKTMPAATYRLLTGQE

In assay [10] the target is PARD3B_3, Q8TEW8.
Sequence of PARD3B_3, Q8TEW8 (Q8TEW8 490-594): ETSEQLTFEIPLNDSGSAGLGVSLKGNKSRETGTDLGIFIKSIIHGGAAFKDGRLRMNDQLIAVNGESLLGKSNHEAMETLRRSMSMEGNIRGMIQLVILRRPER
Assay [11] addresses T7, PDLIM3, Q53GG5.
T7 sequence (Q53GG5 1-94, limits assumed, looked up): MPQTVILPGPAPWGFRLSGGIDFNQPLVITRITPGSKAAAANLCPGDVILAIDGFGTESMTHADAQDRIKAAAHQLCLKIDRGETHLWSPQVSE

Assay [12] concerns the target MAGI3_4, Q5TCQ9.
Assay [13] has as its target RIMS1, Q86UR5.
The target in assay [14] is MAGI1_5, Q96QZ7.
Sequence of MAGI1_5, Q96QZ7 (Q96QZ7 986-1098): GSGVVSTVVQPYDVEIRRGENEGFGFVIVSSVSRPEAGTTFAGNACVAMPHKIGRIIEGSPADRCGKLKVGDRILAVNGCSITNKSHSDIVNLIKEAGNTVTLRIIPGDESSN
Assay [15] concerns the target T8, PDZD8, Q8NEN9.
T8 sequence (Q8NEN9 361-459, limits assumed, looked up): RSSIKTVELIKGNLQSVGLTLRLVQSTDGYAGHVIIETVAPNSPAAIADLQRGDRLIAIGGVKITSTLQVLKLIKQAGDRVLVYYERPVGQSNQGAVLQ

Assay [16] concerns the target DLG2_1, Q15700.
Assay [17] deals with PREX1_1, Q8TCU6.
Sequence of PREX1_1, Q8TCU6 (Q8TCU6 608-718): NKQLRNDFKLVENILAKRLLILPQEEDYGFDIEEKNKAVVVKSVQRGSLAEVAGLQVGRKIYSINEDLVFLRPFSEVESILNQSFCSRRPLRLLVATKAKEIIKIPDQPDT
The target in assay [18] is T9, LNX2_4, Q8N448.
T9 sequence (Q8N448 595-690, limits assumed, looked up): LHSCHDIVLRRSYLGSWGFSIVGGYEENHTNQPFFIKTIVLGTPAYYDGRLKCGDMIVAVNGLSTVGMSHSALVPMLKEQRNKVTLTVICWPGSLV

Assay [19] addresses T10, SYNPO2L, Q9H987.
T10 sequence (Q9H987 1-98, limits assumed, looked up): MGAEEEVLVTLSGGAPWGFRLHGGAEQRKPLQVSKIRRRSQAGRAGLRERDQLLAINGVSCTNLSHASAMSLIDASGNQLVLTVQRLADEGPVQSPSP

Assay [20] has as its target T11, PDZD2_3, O15018.
T11 sequence (O15018 581-682, limits assumed, looked up): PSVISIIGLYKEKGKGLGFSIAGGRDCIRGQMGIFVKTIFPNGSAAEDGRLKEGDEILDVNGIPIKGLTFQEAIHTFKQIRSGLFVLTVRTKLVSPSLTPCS

Assay [21] has as its target T12, PDZD11, Q5EBL8.
T12 sequence (Q5EBL8 42-139, limits assumed, looked up): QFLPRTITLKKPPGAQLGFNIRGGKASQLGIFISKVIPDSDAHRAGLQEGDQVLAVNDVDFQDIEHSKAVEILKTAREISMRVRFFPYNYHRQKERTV

For assay [22], the target named is T13, SHROOM3, Q8TF72.
T13 sequence (Q8TF72 20-120, limits assumed, looked up): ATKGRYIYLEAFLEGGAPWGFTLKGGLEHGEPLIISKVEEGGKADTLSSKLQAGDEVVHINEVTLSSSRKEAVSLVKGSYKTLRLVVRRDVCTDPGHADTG

In assay [23] the target is T14, PDZRN3_2, Q9UPQ7.
T14 sequence (Q9UPQ7 414-513, limits assumed, looked up): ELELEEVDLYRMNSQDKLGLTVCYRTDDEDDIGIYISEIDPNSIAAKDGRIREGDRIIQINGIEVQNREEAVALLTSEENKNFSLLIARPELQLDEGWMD

[24] abbreviates: modified: phospho on S at position -3 from the C-terminal residue.
The mark [25] stands for this setting: plain residues with an end cap or a label only (N-terminal biotin on a linker: (peg)3).
The mark [26] stands for this setting: modified: acetyl on K at position -1 from the C-terminal residue.

Sequence of PARD3B_2, Q8TEW8 (Q8TEW8 376-471): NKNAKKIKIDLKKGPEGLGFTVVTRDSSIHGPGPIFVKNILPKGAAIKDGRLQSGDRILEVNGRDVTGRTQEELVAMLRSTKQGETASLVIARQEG
Sequence of RIMS1, Q86UR5 (Q86UR5 584-692): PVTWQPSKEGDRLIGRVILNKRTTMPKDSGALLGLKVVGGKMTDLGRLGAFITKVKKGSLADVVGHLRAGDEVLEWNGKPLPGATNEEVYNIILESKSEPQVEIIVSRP
Sequence of MAGI3_4, Q5TCQ9 (Q5TCQ9 716-815): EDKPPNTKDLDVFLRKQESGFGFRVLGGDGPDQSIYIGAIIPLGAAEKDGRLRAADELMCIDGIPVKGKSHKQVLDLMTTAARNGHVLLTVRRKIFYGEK

B1: RPS6KA1_-3P, Q15418 (peptide)
chain: RRVRKLPSTTL
Usually pKd stands for the negative decadic logarithm of the Kd, by convention in mol/L. Consider B1, for which the pKd result in assay [1] (setting [24]) is “below the threshold”; in assay [2] (setting [24]) it was “below the threshold”; in [3] (setting [24]), “below the threshold”; in [4] (setting [24]) it was 3.63; in [5] (setting [24]), “below the threshold”; in assay [6] (setting [24]), “below the threshold”. Moreover, the pKd result in [7] (setting [24]), in assay [8] (setting [24]), in assay [9] (setting [24]), in [10] (setting [24]), in [11] (setting [24]) and in assay [12] (setting [24]) was “below the threshold” each time. Moreover, the pKd entry in assay [13] (setting [24]) is “below the threshold”; in assay [14] (setting [24]) it was “below the threshold”; in assay [15] (setting [24]), “below the threshold”; in assay [16] (setting [24]) it was 3.69; in [17] (setting [24]), “below the threshold”; in assay [18] (setting [24]), “below the threshold”. The pKd result in [19] (setting [24]) was “below the threshold”; in assay [20] (setting [24]) it was “below the threshold”; in assay [21] (setting [24]), “below the threshold”; in assay [22] (setting [24]), “below the threshold”; in assay [23] (setting [24]) it was 3.72.

B2: SARS-Cov2-3a, P0DTC3 (peptide)
chain: YDEPTTTTSVPL
With B2, the negative logarithm of the Kd (pKd) entry was “below the threshold” in [1] (setting [25]); “below the threshold” in assay [2] (setting [25]); “below the threshold” in assay [3] (setting [25]); “below the threshold” in assay [4] (setting [25]); 3.86 in assay [5] (setting [25]); “below the threshold” in assay [6] (setting [25]). Moreover, the pKd entry in assay [7] (setting [25]), in assay [8] (setting [25]), in assay [9] (setting [25]), in [10] (setting [25]), in assay [11] (setting [25]) and in assay [12] (setting [25]) was “below the threshold” throughout. The pKd result was “below the threshold” in assay [13] (setting [25]); 3.76 in assay [14] (setting [25]); “below the threshold” in assay [15] (setting [25]); “below the threshold” in assay [16] (setting [25]); “below the threshold” in [17] (setting [25]); “below the threshold” in [18] (setting [25]). Moreover, the pKd result in [19] (setting [25]), in [20] (setting [25]), in assay [21] (setting [25]), in [22] (setting [25]) and in [23] (setting [25]) was “below the threshold” in each case.

B3: PTEN_Ac, P60484 (peptide)
chain: DEDQHTQITKV
Regarding B3, the pKd is 3.78 in [1] (setting [26]); 3.97 in [2] (setting [26]); “below the threshold” in assay [3] (setting [26]); 4.8 in assay [4] (setting [26]); “below the threshold” in assay [5] (setting [26]); “below the threshold” in assay [6] (setting [26]). Besides, the negative logarithm of the Kd (pKd) entry in assay [7] (setting [26]), in [8] (setting [26]), in [9] (setting [26]), in assay [10] (setting [26]), in assay [11] (setting [26]) and in assay [12] (setting [26]) was “below the threshold” throughout. The pKd result in assay [13] (setting [26]) was “below the threshold”; in assay [14] (setting [26]), 4.84; in assay [15] (setting [26]), “below the threshold”; in assay [16] (setting [26]), 3.98; in assay [17] (setting [26]), “below the threshold”; in [18] (setting [26]) it was “below the threshold”. Also, the pKd entry in assay [19] (setting [26]), in assay [20] (setting [26]), in [21] (setting [26]), in assay [22] (setting [26]) and in assay [23] (setting [26]) was “below the threshold” each time.
